Substrate in the data set: Cc1c(CC(=O)NCCCC[C@H](NC(=O)CCN)C(=O)O)c(=O)oc2cc(N)ccc12
The data set can be described thus: cells, lysate or membranes. The settings on record: HBSS with 20 mM Hepes, 300 mOsmol/kg (control); fluorescent substrate 0-500 μM.

The term Km denotes the substrate concentration at which the rate is half of its maximum.

B1: PepT2 (Oreochromis mossambicus) (protein)
chain: MGKKLFGTNYPVSICFIVVNEFCERFSYYGMKALLTLYFLNYLKWDKDLSTAVYHAFSGLCYFTPILGAFIADSWLGKYKTIIYLSIVYVIGHVVKSVGAIPTVGSTELHIALSMSGLILIALGTGGIKPCVAAFGGDQFGEEHITERQKFFSIFYMSINAGSFLSTIITPILRGDVQCFGGDCYALAFGVPAALMVVALVVFIAGSSLYKRTPPQGNILWEVCNCIGFALKNRWNKSKHDSPRQHWLDWAEEKYSMRLIQEIKMVLRVLVLYIPLPMFWALFDQQGSRWTLQATRMNLAFGNSFAIKPDQMQMLNALLILVFVPIFDLIIYPLVRLCGLKITPLRKMAVGMVFAALAFGAATLVEVNVVKTVVNPAPAGKCLLQVVNLAKGDVSLKAPGTDLFLQSIKYLEDPPGYETVPLSNGELNLEVTGVNGETFSATQKVEEKKAYSVIIYPDAAGITYTLVEDHITKNEDGNPLLRFLNTQPEALNVTVGDKNFYMSSGYNVTHNKTVQRGEYTHATCISNSGKTSKLNLGLLDFGACYTVILTEEAGEIVPHKIEDVKANNVHIAYQIPQYILITAGEVMFSITGLEFSYSQAPANMKSVLQAGWLLTVAFGNVIVLIVAEGAGLEQWIEFLLFACLLLGVCIIFSIMAHFYTYVDPEEMEKLYLENSVKEEDDSDFKKKNNEIQLNKTGKSTRM
Regarding B1, the Michaelis constant (Km) worked out at 178.78 ± 19.78 µM.
